Data as given in the supplement of paper PMC9112550, “Optimization of the antimicrobial peptide Bac7 by deep mutational scanning” (BMC Biology, 2022).

Test system: Escherichia coli TOP10
Assay: shrunken log2 fold change of peptide-encoding DNA abundance (4.5 h post-induction vs induction); higher = less antimicrobial activity (less host growth inhibition)
Details: time post-induction: 4.5 h; library: site-saturation at positions 5, 18, 19, 20
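Further: peptides expressed intracellularly from a pBAD plasmid library in pooled LB shake-flask culture, induced with 0.3% L-arabinose, DNA abundance read by NGS, three biological replicates, DESeq2 with apeglm shrinkage.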

Row | Sequence | shrunken log2 fold change
1 | RRIRGRPPRLPRPRPRPITLPRP | 0.217
2 | RRIRPRPPRLPRPRPRPNQRPRP | 0.0736
3 | RRIRCRPPRLPRPRPRPMQQPRP | -0.036
4 | RRIRLRPPRLPRPRPRPPNCPRP | -0.0466
5 | RRIRARPPRLPRPRPRPAVGPRP | 0.512
6 | RRIRRRPPRLPRPRPRPNTHPRP | -0.126
7 | RRIRMRPPRLPRPRPRPKAHPRP | 0.892
8 | RRIRLRPPRLPRPRPRPNKGPRP | -0.254
9 | RRIRGRPPRLPRPRPRPSWCPRP | 0.013
10 | RRIRTRPPRLPRPRPRPTLEPRP | 0.0319
11 | RRIRYRPPRLPRPRPRPKINPRP | -0.902
12 | RRIRLRPPRLPRPRPRPIWAPRP | 0.136
13 | RRIRGRPPRLPRPRPRPTELPRP | 0.261
14 | RRIRKRPPRLPRPRPRPEYGPRP | 0.087
15 | RRIRWRPPRLPRPRPRPMWVPRP | -0.0542
16 | RRIRGRPPRLPRPRPRPIDRPRP | 0.127
17 | RRIRPRPPRLPRPRPRPANHPRP | -0.0982
18 | RRIRRRPPRLPRPRPRPDFKPRP | 0.151
19 | RRIRRRPPRLPRPRPRPYYAPRP | -0.561
20 | RRIRARPPRLPRPRPRPSGKPRP | -0.0838
21 | RRIRHRPPRLPRPRPRPHWEPRP | -0.211
22 | RRIRPRPPRLPRPRPRPFWNPRP | -0.478
23 | RRIRKRPPRLPRPRPRPTWGPRP | 0.317
24 | RRIRGRPPRLPRPRPRPYFSPRP | -0.00993
25 | RRIRDRPPRLPRPRPRPVTQPRP | -0.0479

Row | Sequence | shrunken log2 fold change
26 | RRIRCRPPRLPRPRPRPFQRPRP | -0.418
27 | RRIRERPPRLPRPRPRPLRIPRP | -0.277
28 | RRIRTRPPRLPRPRPRPSCNPRP | -0.768
29 | RRIRIRPPRLPRPRPRPIEPPRP | 0.0377
30 | RRIRHRPPRLPRPRPRPKRYPRP | -0.0093
31 | RRIRTRPPRLPRPRPRPYGNPRP | -0.0638
32 | RRIRIRPPRLPRPRPRPKTKPRP | -0.0929
33 | RRIRSRPPRLPRPRPRPHISPRP | -0.035
34 | RRIRTRPPRLPRPRPRPIARPRP | -0.00992
35 | RRIRKRPPRLPRPRPRPSWVPRP | -0.0457
36 | RRIRVRPPRLPRPRPRPQKYPRP | -0.783
37 | RRIRFRPPRLPRPRPRPCNQPRP | -0.649
38 | RRIRPRPPRLPRPRPRPWFLPRP | -0.458
39 | RRIRHRPPRLPRPRPRPGDTPRP | -0.0174
40 | RRIRWRPPRLPRPRPRPGNSPRP | -0.22
41 | RRIRLRPPRLPRPRPRPFVIPRP | -0.214
42 | RRIRERPPRLPRPRPRPGGIPRP | 0.0836
43 | RRIRARPPRLPRPRPRPNIAPRP | 0.464
44 | RRIRLRPPRLPRPRPRPYISPRP | -0.374
45 | RRIRKRPPRLPRPRPRPGEDPRP | 0.0621
46 | RRIRHRPPRLPRPRPRPCIFPRP | -0.597
47 | RRIRARPPRLPRPRPRPCTNPRP | 0.109
48 | RRIRERPPRLPRPRPRPWIIPRP | -0.269
49 | RRIRFRPPRLPRPRPRPIKDPRP | -0.234
50 | RRIRERPPRLPRPRPRPHGGPRP | -0.0234

Row | Sequence | shrunken log2 fold change
51 | RRIRRRPPRLPRPRPRPRWHPRP | 0.353
52 | RRIRLRPPRLPRPRPRPFFWPRP | 0.296
53 | RRIRCRPPRLPRPRPRPTWAPRP | 0.118
54 | RRIRFRPPRLPRPRPRPNMMPRP | -0.444
55 | RRIRGRPPRLPRPRPRPFPEPRP | 0.56
56 | RRIRPRPPRLPRPRPRPFDAPRP | 0.0141
57 | RRIRCRPPRLPRPRPRPERKPRP | 0.086
58 | RRIRIRPPRLPRPRPRPQFIPRP | -0.782
59 | RRIRSRPPRLPRPRPRPVKMPRP | 0.0674
60 | RRIRSRPPRLPRPRPRPANHPRP | -0.606
61 | RRIRKRPPRLPRPRPRPLVPPRP | 0.516
62 | RRIRSRPPRLPRPRPRPGFFPRP | 0.176
63 | RRIRFRPPRLPRPRPRPGFHPRP | -0.416
64 | RRIRVRPPRLPRPRPRPFSSPRP | -0.068
65 | RRIRTRPPRLPRPRPRPLTSPRP | -0.255
66 | RRIRDRPPRLPRPRPRPFCLPRP | 0.0132
67 | RRIRFRPPRLPRPRPRPVRFPRP | 0.429
68 | RRIRARPPRLPRPRPRPSIEPRP | 0.0128
69 | RRIRERPPRLPRPRPRPTMDPRP | 0.0537
70 | RRIRYRPPRLPRPRPRPDIDPRP | -0.172
71 | RRIRARPPRLPRPRPRPTPVPRP | 0.696
72 | RRIRDRPPRLPRPRPRPYRCPRP | -0.0315
73 | RRIRGRPPRLPRPRPRPCSAPRP | 1.58
74 | RRIRDRPPRLPRPRPRPVQWPRP | 0.0426
75 | RRIRGRPPRLPRPRPRPKHRPRP | 0.449

Row | Sequence | shrunken log2 fold change
76 | RRIRYRPPRLPRPRPRPVALPRP | -0.404
77 | RRIRQRPPRLPRPRPRPAFKPRP | -0.015
78 | RRIRGRPPRLPRPRPRPYVSPRP | -0.203
79 | RRIRLRPPRLPRPRPRPVENPRP | -0.209
80 | RRIRPRPPRLPRPRPRPILFPRP | -0.124
81 | RRIRIRPPRLPRPRPRPYHNPRP | -1.25
82 | RRIRGRPPRLPRPRPRPWVRPRP | 0.151
83 | RRIRPRPPRLPRPRPRPQLVPRP | 0.0126
84 | RRIRYRPPRLPRPRPRPFDCPRP | -0.0565
85 | RRIRCRPPRLPRPRPRPMRMPRP | 0.22
86 | RRIRHRPPRLPRPRPRPDLCPRP | 0.00487
87 | RRIRHRPPRLPRPRPRPREHPRP | -0.126
88 | RRIRIRPPRLPRPRPRPVIYPRP | -0.695
89 | RRIRGRPPRLPRPRPRPLFEPRP | 0.739
90 | RRIRIRPPRLPRPRPRPQQIPRP | -0.552
91 | RRIRFRPPRLPRPRPRPFRIPRP | -0.687
92 | RRIRMRPPRLPRPRPRPVYWPRP | 0.0687
93 | RRIRQRPPRLPRPRPRPEQNPRP | -0.012
94 | RRIRVRPPRLPRPRPRPPTNPRP | 1.14
95 | RRIRWRPPRLPRPRPRPYQMPRP | -0.0321
96 | RRIRGRPPRLPRPRPRPGLIPRP | -0.0196
97 | RRIRERPPRLPRPRPRPWHKPRP | -0.236
98 | RRIRARPPRLPRPRPRPMVRPRP | 0.348
99 | RRIRSRPPRLPRPRPRPHGQPRP | 0.24
100 | RRIRQRPPRLPRPRPRPVAWPRP | 0.128

Row | Sequence | shrunken log2 fold change
101 | RRIRMRPPRLPRPRPRPRNKPRP | 0.667
102 | RRIRTRPPRLPRPRPRPPTTPRP | 0.302
103 | RRIRTRPPRLPRPRPRPLFDPRP | -0.451
104 | RRIRKRPPRLPRPRPRPQSAPRP | 0.319
105 | RRIRLRPPRLPRPRPRPWFPPRP | -0.157
106 | RRIRCRPPRLPRPRPRPGLQPRP | 0.109
107 | RRIRHRPPRLPRPRPRPEYWPRP | -0.0523
108 | RRIRLRPPRLPRPRPRPIACPRP | 0.0367
109 | RRIRCRPPRLPRPRPRPLICPRP | -0.499
110 | RRIRWRPPRLPRPRPRPYEVPRP | -0.114
111 | RRIRHRPPRLPRPRPRPKYVPRP | -0.0624
112 | RRIRNRPPRLPRPRPRPGPDPRP | 0.295
113 | RRIRCRPPRLPRPRPRPDGSPRP | -0.133
114 | RRIRTRPPRLPRPRPRPYWLPRP | -0.486
115 | RRIRKRPPRLPRPRPRPEGCPRP | 0.959
116 | RRIRDRPPRLPRPRPRPKSDPRP | 0.295
117 | RRIRYRPPRLPRPRPRPQIVPRP | -0.342
118 | RRIRDRPPRLPRPRPRPVCIPRP | 0.0226
119 | RRIRARPPRLPRPRPRPVWIPRP | -0.0967
120 | RRIRERPPRLPRPRPRPPHCPRP | 0.118
121 | RRIRTRPPRLPRPRPRPENRPRP | -0.0266
122 | RRIRQRPPRLPRPRPRPPQGPRP | 0.434
123 | RRIRCRPPRLPRPRPRPIPNPRP | 0.0105
124 | RRIRNRPPRLPRPRPRPWKVPRP | -1.21
125 | RRIRTRPPRLPRPRPRPNDKPRP | -0.605

Row | Sequence | shrunken log2 fold change
126 | RRIRKRPPRLPRPRPRPKVNPRP | 0.0581
127 | RRIRDRPPRLPRPRPRPRHSPRP | -0.043
128 | RRIRPRPPRLPRPRPRPVHEPRP | 0.497
129 | RRIRGRPPRLPRPRPRPIYRPRP | 0.2
130 | RRIRWRPPRLPRPRPRPADQPRP | 0.0591
131 | RRIRERPPRLPRPRPRPDCHPRP | -0.011
132 | RRIRNRPPRLPRPRPRPQAGPRP | -0.128
133 | RRIRKRPPRLPRPRPRPWVPPRP | 0.481
134 | RRIRQRPPRLPRPRPRPHFTPRP | -0.217
135 | RRIRLRPPRLPRPRPRPHNIPRP | -0.049
136 | RRIRDRPPRLPRPRPRPCPEPRP | -0.0682
137 | RRIRFRPPRLPRPRPRPRICPRP | 0.0102
138 | RRIRHRPPRLPRPRPRPEHHPRP | -0.0643
139 | RRIRLRPPRLPRPRPRPFARPRP | -0.00783
140 | RRIRCRPPRLPRPRPRPYMFPRP | -1.01
141 | RRIRTRPPRLPRPRPRPDAYPRP | -0.134
142 | RRIRYRPPRLPRPRPRPNRCPRP | 0.00786
143 | RRIRLRPPRLPRPRPRPWTMPRP | -0.202
144 | RRIRARPPRLPRPRPRPQPVPRP | 0.292
145 | RRIRIRPPRLPRPRPRPTHSPRP | -0.469
146 | RRIRSRPPRLPRPRPRPWTAPRP | -0.22
147 | RRIRKRPPRLPRPRPRPPYLPRP | 0.0134
148 | RRIRIRPPRLPRPRPRPFDVPRP | -0.296
149 | RRIRFRPPRLPRPRPRPRHTPRP | -0.00169
150 | RRIRFRPPRLPRPRPRPVHIPRP | 0.0681
